Measured values as given in publication PMC11564643.

Legend:
[1] = target: dynamic microtubules grown from GMPCPP stabilized seeds (porcine brain tubulin) (porcine) (UniProt P02550); assay: FRAP (TIRF microscopy on dynamic microtubules); set-up of the buckling experiment; EB3 and HSET bleached together (488 and 561 nm lasers at 100% for 50 frames), recovery followed at free tips and in antiparallel overlaps
[2] = target: dynamic microtubules grown from GMPCPP stabilized seeds (porcine brain tubulin) (porcine) (UniProt P02550)

Row | Substance | fluorescence recovery time at single microtubule tips (in the presence of HSET) [1] | fold slower turnover at tips in antiparallel overlaps (with HSET) against single tips [1] | force on a streptavidin bead coated directly with a saturating amount of biotinylated EB3 dimers, optical trap at a growing microtubule tip [2]
1 | mGFP-EB3 homodimer (from UniProt Q9UPY8 1-281) (natural protein) | 6 s | 3 fold | 
2 | biotinylated EB3 dimers coupled directly to streptavidin beads (from UniProt Q9UPY8 1-281) (natural protein) |  |  | 0.5 pN
